For one assay, the target named is CD4 (human) (UniProt P01730). The assay can be described thus: cell-based or functional assay.
Another assay deals with CCR5 (human) (UniProt P51681). The assay can be described thus: cell-based or functional assay.

With Monomeric gp120BaL (R5-tropic), the ATP release from primary human macrophages (luminescence assay), peak fold change against vehicle with CD4 (human) and in the assay with CCR5 (human) was 1.8 fold each time.
In the case of Monomeric gp120SF162 (R5-tropic), the ATP release from primary human macrophages (luminescence assay), peak fold change against vehicle in the assay with CD4 (human) and with CCR5 (human) was 1.8 fold each time.

The values above are taken from US20150057331A1.
